We go through two molecules from patent US20150150156, “METHODS AND COMPOSITIONS FOR REDUCING GENE EXPRESSION IN PLANTS” (The Regents of the University of California, published 2015).

For data set [1], the target named is T1, SUVR5 zinc finger domain (aa 720-866) (Arabidopsis thaliana, UniProt O64827 SEQ:1-147).
T1 sequence: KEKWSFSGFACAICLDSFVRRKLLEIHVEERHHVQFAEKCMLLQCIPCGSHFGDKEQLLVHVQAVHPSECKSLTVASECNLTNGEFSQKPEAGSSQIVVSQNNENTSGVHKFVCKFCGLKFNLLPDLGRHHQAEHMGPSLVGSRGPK
The experiment in a line: EMSA; 100, 250, 500 ng protein; 12% glycerol, 20 mM Tris-HCl pH 7.5, 50 mM KCl, 1 mM MgCl2, 1 mM DTT. Particulars: tags: GST fusion (pDEST15).

Data set [2] concerns the target T1, SUVR5 zinc finger domain (aa 720-866). The experiment in a line: EMSA; specificity control; specificity stated as confirmed by EMSA, gel only in figure. Particulars: tags: GST fusion (pDEST15). (In EMSA bound probe runs differently from free probe, usually more slowly.)

B1: specific probe (dsDNA)
DNA 1: GTAGAATACTAGTTGATAAC
DNA 2: GTTATCAACTAGTATTCTAC
As to B1, the binding result in data set [1] is listed as “binds”.

B2: unspecific probe (dsDNA)
DNA 1: ACCAAGCAACACACCCCGT
DNA 2: ACGGGGTGTGTTGCTTGGT
As to B2, the binding result in data set [2] was “no binding”.
